Earlier results, collected in article PMC9760423.

What was measured:
[1] = target: Cdc4 (Saccharomyces cerevisiae) (UniProt P07834)
4E-BP2 (Homo sapiens) = 4E-BP2 (Homo sapiens) (UniProt Q13542)
Sequence of UniProt Q13542 (Q13542 whole entry): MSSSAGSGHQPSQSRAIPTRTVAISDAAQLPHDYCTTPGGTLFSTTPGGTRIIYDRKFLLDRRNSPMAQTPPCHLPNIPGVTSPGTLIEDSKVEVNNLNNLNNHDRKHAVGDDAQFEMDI

Sequence of UniProt P07834 (P07834 whole entry): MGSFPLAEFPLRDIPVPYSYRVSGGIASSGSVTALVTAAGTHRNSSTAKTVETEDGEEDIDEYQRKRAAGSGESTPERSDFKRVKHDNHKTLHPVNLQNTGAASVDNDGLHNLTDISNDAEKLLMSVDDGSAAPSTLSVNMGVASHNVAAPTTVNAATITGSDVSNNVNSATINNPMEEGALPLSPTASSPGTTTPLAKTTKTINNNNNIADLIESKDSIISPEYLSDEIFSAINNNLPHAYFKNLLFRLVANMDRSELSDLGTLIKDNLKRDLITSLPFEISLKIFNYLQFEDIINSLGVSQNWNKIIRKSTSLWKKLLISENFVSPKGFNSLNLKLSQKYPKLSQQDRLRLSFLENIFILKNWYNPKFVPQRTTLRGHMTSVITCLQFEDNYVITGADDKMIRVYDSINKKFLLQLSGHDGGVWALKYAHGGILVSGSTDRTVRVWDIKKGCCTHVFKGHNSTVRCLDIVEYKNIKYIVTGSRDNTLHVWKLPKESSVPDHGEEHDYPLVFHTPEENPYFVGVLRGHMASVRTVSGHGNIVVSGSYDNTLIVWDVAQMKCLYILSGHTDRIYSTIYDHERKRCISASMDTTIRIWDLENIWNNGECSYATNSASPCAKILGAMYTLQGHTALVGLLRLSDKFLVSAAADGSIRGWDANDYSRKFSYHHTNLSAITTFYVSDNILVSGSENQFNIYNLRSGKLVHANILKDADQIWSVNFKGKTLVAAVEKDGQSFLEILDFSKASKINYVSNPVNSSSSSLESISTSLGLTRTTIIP

Kd [1] [nM]	Kd (4E-BP2 (Homo sapiens)) [nM]	Substance
1000		Sic1 (from UniProt P38634)
	3.2	eIF4E (from UniProt P06730)
